In patent publication US20160194389A1:

The substances below were run against human neonatal Fc-receptor (FcRn) (human) (UniProt P55899) (assay: FcRn affinity column chromatography).
human neonatal Fc-receptor (FcRn) (human), sequence (P55899 24-297 limits assumed, chain 1 of 2): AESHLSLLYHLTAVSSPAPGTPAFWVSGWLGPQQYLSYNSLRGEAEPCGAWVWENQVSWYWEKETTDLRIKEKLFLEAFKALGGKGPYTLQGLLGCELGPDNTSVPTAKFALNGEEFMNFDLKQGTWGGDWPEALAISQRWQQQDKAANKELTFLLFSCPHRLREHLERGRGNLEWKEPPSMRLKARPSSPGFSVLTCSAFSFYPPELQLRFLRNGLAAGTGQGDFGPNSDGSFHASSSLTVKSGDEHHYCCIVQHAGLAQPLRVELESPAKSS
human neonatal Fc-receptor (FcRn) (human), sequence (P61769 21-119 limits assumed, chain 2 of 2, further chain): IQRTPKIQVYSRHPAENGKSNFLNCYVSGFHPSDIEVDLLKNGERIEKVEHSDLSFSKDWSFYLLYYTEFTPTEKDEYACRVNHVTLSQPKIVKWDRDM
Substance “symmetrically engineered IgG1 Fc-region, L234A/L235A/P329G with Y436A (antibody)” has a FcRn-affinity column retention time of 41.3 min. “symmetrically modified anti-HER2 antibody, mutation D98E” showed a retention time of 46.2 min. In the case of “symmetrically modified anti-HER2 antibody, mutation E258H”, the retention time is reported as 45.6 min. “symmetrically modified anti-HER2 antibody, mutation E430H” showed a retention time of 46.4 min. “symmetrically modified anti-HER2 antibody, mutation K288E” gave a retention time of 45.2 min. In the case of “symmetrically modified anti-HER2 antibody, mutation K290H”, the retention time is reported as 46.2 min. “symmetrically modified anti-HER2 antibody, mutation K317H” was tested, and the retention time was 46.3 min. Work on “symmetrically modified anti-HER2 antibody, mutation L309H” yielded a retention time of 45.5 min. In the case of “symmetrically modified anti-HER2 antibody, mutation N434H”, the retention time is reported as 52 min. In the case of “symmetrically modified anti-HER2 antibody, mutation Q311H”, the retention time is reported as 46.3 min. Work on “symmetrically modified anti-HER2 antibody, mutation R255D” yielded a retention time of 41.4 min. “symmetrically modified anti-HER2 antibody, mutation T256H” was tested, and the retention time was 46 min.

These substances were tested against human neonatal Fc-receptor (FcRn) (human) (UniProt P55899) (assay: FcRn affinity chromatography of the knobs-into-holes anti-VEGF/ANG2 antibody).
In the case of “bispecific anti-VEGF/ANG2 antibody (knobs-into-holes), first chain with I253A/H310A/H435A and second chain with H310A (bispecific antibody)”, the RT [min] (retention time on the FcRn affinity column) is reported as 0 min. In the case of “bispecific anti-VEGF/ANG2 antibody (knobs-into-holes), first chain with I253A/H310A/H435A and second chain with H435A (bispecific antibody)”, the RT [min] (retention time on the FcRn affinity column) is reported as 0 min. In the case of “bispecific anti-VEGF/ANG2 antibody (knobs-into-holes), first chain with I253A/H310A/H435A and second chain with I253A/H310A/H435A (bispecific antibody)”, the RT [min] (retention time on the FcRn affinity column) is reported as 0 min. In the case of “bispecific anti-VEGF/ANG2 antibody (knobs-into-holes), no FcRn affecting mutation (bispecific antibody)”, the RT [min] (retention time on the FcRn affinity column) is reported as 52.8 min.
